In assay [1] the target is HIV-1 Env of 20 pseudotyped viruses representing 10 different HIV-1 clades. The assay is described as follows: cell-based or functional assay.
For assay [2] the target is unchanged. The assay is described as follows: cell-based or functional assay. The source holds these as a separate data set.

Read-outs that look alike come from different tables or passages of the source.

B1: Binding Protein 2 (protein)
light 1: DFVLTQSPHSLSVTPGESASISCKSSHSLIHGDRNNYLAWYVQKPGRSPQLLIYLASSRASGVPDRFSGSGSDKDFTLKISRVETEDVGTYYCMQGRESPWTFGQGTKVDIKDKTHTASELTQDPAVSVALKQTVTITCRGDSLRSHYASWYQKKPGQAPVLLFYGKNNRPSGIPDRFSGSASGNRASLTITGAQAEDEADYYCSSRDKSGSRLSVFGGGTKLTVLDKTHTRTVAAPSVFIFPPSDEQLKSGTASVVCLLNNFYPREAKVQWKVDNALQSGNSQESVTEQDSKDSTYSLSSTLTLSKADYEKHKVYACEVTHQGLSSPVTKSFNRGEC
heavy 1: EVRLVESGGGLVKPGGSLRLSCSASGFDFDNAWMTWVRQPPGKGLEWVGRITGPGEGWSVDYAESVKGRFTISRDNTKNTLYLEMNNVRTEDTGYYFCARTGKYYDFWSGYPPGEEYFQDWGQGTLVIVSSDKTHTQVHLTQSGPEVRKPGTSVKVSCKAPGNTLKTYDLHWVRSVPGQGLQWMGWISHEGDKKVIVERFKAKVTIDWDRSTNTAYLQLSGLTSGDTAVYYCAKGSKHRLRDYALYDDDGALNWAVDVDYLSNLEFWGQGTAVTVSSDKTHTASTKGPSVFPLAPSSKSTSGGTAALGCLVKDYFPEPVTVSWNSGALTSGVHTFPAVLQSSGLYSLSSVVTVPSSSLGTQTYICNVNHKPSNTKVDKKVEPKSCDKTHTCPPCPAPELLGGPSVFLFPPKPKDTLMISRTPEVTCVVVDVSHEDPEVKFNWYVDGVEVHNAKTKPREEQYNSTYRVVSVLTVLHQDWLNGKEYKCKVSNKALPAPIEKTISKAKGQPREPQVYTLPPCRDELTKNQVSLWCLVKGFYPSDIAVEWESNGQPENNYKTTPPVLDSDGSFFLYSKLTVDKSRWQQGNVFSCSVLHEALHSHYTQKSLSLSPG
heavy 2: RAHLVQSGTAMKKPGASVRVSCQTSGYTFTAHILFWFRQAPGRGLEWVGWIKPQYGAVNFGGGFRDRVTLTRDVYREIAYMDIRGLKPDDTAVYYCARDRSYGDSSWALDAWGQGTTVVVSAASTKGPSVFPLAPSSKSTSGGTAALGCLVKDYFPEPVTVSWNSGALTSGVHTFPAVLQSSGLYSLSSVVTVPSSSLGTQTYICNVNHKPSNTKVDKKVEPKSCDKTHTCPPCPAPELLGGPSVFLFPPKPKDTLMISRTPEVTCVVVDVSHEDPEVKFNWYVDGVEVHNAKTKPREEQYNSTYRVVSVLTVLHQDWLNGKEYKCKVSNKALPAPIEKTISKAKGQPREPQVCTLPPSRDELTKNQVSLSCAVKGFYPSDIAVEWESNGQPENNYKTTPPVLDSDGSFFLVSKLTVDKSRWQQGNVFSCSVLHEALHSHYTQKSLSLSPG
light 2: YIHVTQSPSSLSVSIGDRVTINCQTSQGVGSDLHWYQHKPGRAPKLLIHHTSSVEDGVPSRFSGSGFHTSFNLTISDLQADDIATYYCQVLQFFGRGSRLHIKRTVAAPSVFIFPPSDEQLKSGTASVVCLLNNFYPREAKVQWKVDNALQSGNSQESVTEQDSKDSTYSLSSTLTLSKADYEKHKVYACEVTHQGLSSPVTKSFNRGEC
For B1, in assay [1], the % VS Neutralized: IC80 < 1 µg/mL (of 20 viruses) worked out at 65%, the % VS Neutralized: IC80 < 50 µg/mL (of 20 viruses) turned out to be 90%, the Geometric Mean (IC80) turned out to be 0.222 µg/mL and the Median IC80 was 0.375 µg/mL. In addition, in assay [1], the Total VS Neutralized: IC80 < 1 µg/mL (of 20 viruses) was 13 viruses and the Total VS Neutralized: IC80 < 50 µg/mL (of 20 viruses) was 18 viruses.

B2: Binding Protein 3 (protein)
light 1: ASELTQDPAVSVALKQTVTITCRGDSLRSHYASWYQKKPGQAPVLLFYGKNNRPSGIPDRFSGSASGNRASLTITGAQAEDEADYYCSSRDKSGSRLSVFGGGTKLTVLDKTHTDFVLTQSPHSLSVTPGESASISCKSSHSLIHGDRNNYLAWYVQKPGRSPQLLIYLASSRASGVPDRFSGSGSDKDFTLKISRVETEDVGTYYCMQGRESPWTFGQGTKVDIKDKTHTRTVAAPSVFIFPPSDEQLKSGTASVVCLLNNFYPREAKVQWKVDNALQSGNSQESVTEQDSKDSTYSLSSTLTLSKADYEKHKVYACEVTHQGLSSPVTKSFNRGEC
heavy 1: QVHLTQSGPEVRKPGTSVKVSCKAPGNTLKTYDLHWVRSVPGQGLQWMGWISHEGDKKVIVERFKAKVTIDWDRSTNTAYLQLSGLTSGDTAVYYCAKGSKHRLRDYALYDDDGALNWAVDVDYLSNLEFWGQGTAVTVSSDKTHTEVRLVESGGGLVKPGGSLRLSCSASGFDFDNAWMTWVRQPPGKGLEWVGRITGPGEGWSVDYAESVKGRFTISRDNTKNTLYLEMNNVRTEDTGYYFCARTGKYYDFWSGYPPGEEYFQDWGQGTLVIVSSDKTHTASTKGPSVFPLAPSSKSTSGGTAALGCLVKDYFPEPVTVSWNSGALTSGVHTFPAVLQSSGLYSLSSVVTVPSSSLGTQTYICNVNHKPSNTKVDKKVEPKSCDKTHTCPPCPAPELLGGPSVFLFPPKPKDTLMISRTPEVTCVVVDVSHEDPEVKFNWYVDGVEVHNAKTKPREEQYNSTYRVVSVLTVLHQDWLNGKEYKCKVSNKALPAPIEKTISKAKGQPREPQVYTLPPCRDELTKNQVSLWCLVKGFYPSDIAVEWESNGQPENNYKTTPPVLDSDGSFFLYSKLTVDKSRWQQGNVFSCSVLHEALHSHYTQKSLSLSPG
heavy 2: B1 heavy 2
light 2: B1 light 2
In assay [1], B2 returned a % VS Neutralized: IC80 < 1 µg/mL (of 20 viruses) of 60%, a % VS Neutralized: IC80 < 50 µg/mL (of 20 viruses) of 90%, a Geometric Mean (IC80) of 0.287 µg/mL and a Median IC80 of 0.469 µg/mL. For the same molecule, in assay [1], the Total VS Neutralized: IC80 < 1 µg/mL (of 20 viruses) was 12 viruses and the Total VS Neutralized: IC80 < 50 µg/mL (of 20 viruses) is 18 viruses.

B3: V1/V2 directed Ab “a” (antibody, V domains shown)
VH: QVHLTQSGPEVRKPGTSVKVSCKAPGNTLKTYDLHWVRSVPGQGLQWMGWISHEGDKKVIVERFKAKVTIDWDRSTNTAYLQLSGLTSGDTAVYYCAKGSKHRLRDYALYDDDGALNWAVDVDYLSNLEFWGQGTAVTVSS
VL: DFVLTQSPHSLSVTPGESASISCKSSHSLIHGDRNNYLAWYVQKPGRSPQLLIYLASSRASGVPDRFSGSGSDKDFTLKISRVETEDVGTYYCMQGRESPWTFGQGTKVDIK
In assay [1], B3 returned a % VS Neutralized: IC80 < 1 µg/mL (of 20 viruses) of 45%, a % VS Neutralized: IC80 < 50 µg/mL (of 20 viruses) of 55%, a Geometric Mean (IC80) of 0.094 µg/mL and a Total VS Neutralized: IC80 < 1 µg/mL (of 20 viruses) of 9 viruses. Also, the Total VS Neutralized: IC80 < 50 µg/mL (of 20 viruses) in assay [1] came out at 11 viruses.

B4: V1/V2 directed Ab “b” (antibody, V domains shown)
VH: QVQLVESGGGVVQPGTSLRLSCAASQFRFDGYGMHWVRQAPGKGLEWVASISHDGIKKYHAEKVWGRFTISRDNSKNTLYLQMNSLRPEDTALYYCAKDLREDECEEWWSDYYDFGKQLPCAKSRGGLVGIADNWGQGTMVTVSS
VL: QSVLTQPPSVSAAPGQKVTISCSGNTSNIGNNFVSWYQQRPGRAPQLLIYETDKRPSGIPDRFSASKSGTSGTLAITGLQTGDEADYYCATWAASLSSARVFGTGTKVIVL
In assay [2], B4 gave a % VS Neutralized: IC80 < 1 µg/mL (of 20 viruses) of 45%, a % VS Neutralized: IC80 < 50 µg/mL (of 20 viruses) of 45%, a Geometric Mean (IC80) of 0.039 µg/mL and a Total VS Neutralized: IC80 < 1 µg/mL (of 20 viruses) of 9 viruses. This molecule also displayed a Total VS Neutralized: IC80 < 50 µg/mL (of 20 viruses) in assay [2] of 9 viruses.
